Source: the nanobody polyreactivity screen of Harvey et al. (2022)

Assay: yeast display, Sf9 membrane polyspecificity reagent, FACS + sequencing; frameworks hold sequencing errors
Outline: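 Genes from sorted yeast were amplified by colony PCR, read by MiSeq 2 × 250 sequencing and filtered on CDR length. These cells carried a synthetic nanobody library in Saccharomyces cerevisiae BJ5465 and were sorted by FACS into low and high (top ~1%) gates on anti-HA and streptavidin fluorescence. Polyreactivity is labelled according to the gate of origin.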

Sequence | polyreactivity (PSR sort gate)
QVQLLQSGGGLVQAGGSLRLSCAASGFIFLGYAMGWYRQAPGNERELVAAISENSGTTSYADSVKGRFTISRDNAKNTVYLQMNSLKPEDTAVYYCAADSIGNYLLYDYWGQGTQVTVSS | low polyreactivity
QVQLVESGGGLVQAGGSLRLSCAASGNIFHVNAMGWYRQAPGKERELVAGITWSGGSTYYADSVKGRFTISRDNAKNTVYLQMNSLKPEDTAVYYCAATGWYFGYGRYGYWVQGTQVTVSS | high polyreactivity
QVQLVESGGGLVQAGGSLRLSCAASGRISNNAMGWYRQAPGKERELVAAITYRGSSTYYADSVKGRFTISRDNAKNTFYLQMISLKPEDTAVYYCAAQRSYAYEYWGQGTQVTVSS | high polyreactivity
QVQLVESGGGLVQAGGSLRLSCAASGLTFSVYAMGWYRQAPGKDRELVAAISGSGGSTYYADSVKGRFTISRDNAKNTVYLQMNSLKPEDTAVYYCAADGRYFRAVFRLYDYWGQGTQVTVSS | low polyreactivity
QVQLVESGGGLVQAGGSLRLSCAASGSIFATNAMGWYRQAPGKERELGASSSSGGGSTYYADSVKGRFTISRDNAKNTVYLQLNSLKPEDTADSYCARRIGPGSRPSWLETWRYPYDYWGQGTQVTVSS | low polyreactivity
QVQLVESGVGLVQAGGSLRLSCAASGFMFGGSAMGWKRQAPGKERELVAAITRSGGSTYYADSVKGRFTISRDNAKNTVYLQMNSLKPEDTAVYYCAAERQPYRTSSYNYWGQGTQVTVSS | high polyreactivity
QVQLVESGGGLVQAGGSLRLSCAASGSILGINVMGWYRPAPGKERELVAAISRRGGSTYYADSVKGRFTISRDNAKNTVYLQMNSLKPEDTAVYYCAATRTARTMGYWGQGTQVTVSS | high polyreactivity
QVQLVESGGGLVQAGGSLRLSCAASGRTFYQYYMGWYRQSPGKEREVVAAIDWSGGSTYYADSVKGRFTISRDNAKNTVYLQMNSLKPEDTAVYYCNADAYPHPVVGYDYWGQGTQVTVSS | low polyreactivity
QVQLVESGGGLVQAGGSLRLSCAASGFTLYGYTMGWSRQAPGKERELVAAITVSGTSTYYADSVKGRFTISRDNAKYTVSLQMNSLKPEDTAVYYCAARPRRRYYGYDSWGQGTQVSVSS | high polyreactivity
QVQLVESAGGLDQARGSLRLSCAASGFTFIRYAMGWYRQAPGKESELVATITRSGGSTYYADSVKGRFTISRDNAKNTVYLQMNSLKPEDTAVYYCAKRGTLGSYYYWGQGTQVTVSS | high polyreactivity
QVQLVESGGGLVQAGGSLRLSCAASGFTFYIYVMGWYRQARGKERELVAAITWSGGRTYYADSVKGRFTISRDYAKNTVYLQMNSLKPEDTAVYYCAASYPGLSYHKYEYWGQGTQVTVSS | high polyreactivity
QVQLVESGGGLVQAGGSLRLSCAASGRTFGYYRMGWYRQAPGKERELVAAITGSGGSTYYADSVKGRFTISRDNAKNTVYLQMNSLKAEDTAVYYCAATYLSRWTLYDYWGQGTQVTVSS | high polyreactivity
QVQLVESGGGLVQAGGSLRLSCAASGRTFSKNVMGWYRQAPGKEREFVARISDSGVGTYYADSVKGRFTISRDNAKNTVYLQMNSLKPEDTAVYYCAAAVWYRGWYRYDYWGQGTQVTVSS | low polyreactivity
QVQLVESGGGLVQAGGSLRLSCAASGRIFSFYTKGWYRQEPGKERHLVAANSGSGGSTYYADSVKGRFTISRDNAKNTVYLQMISLKPEDTEFYYCAAGYGFRYYLYDYWGQGTQVTVSS | high polyreactivity
QVQLVESGGGLVQAGGSLRLSCAASGFTFRYYAMGWYRQAPGKERELVAAITWSGGRTYYADSVKGRFTISRDNAKNTVYLQMNSLKPEDTAVYYCNTPSLWSGEDYWGQGTQVTVSS | high polyreactivity
QVQLVESGGGLVQPEGSLRLSSAASGRTFDYYALGWYRQAPGKERELVAAITWRGVSTYYADSVKGRFTISRDNAKNTVYLQMNSLKPEDTAVYYCAAYSYPYWQKRPYDYWGQGTQVTVSS | low polyreactivity
QVQLVESGGGLVQAGGSLRLSCAASGLIIRYYAMGWYRQARGKERELVAAISYNGGSTYYADSVKGRFTISRDNAKNTVYLQMNSLKPEDTAVYYCAARLYGRYGYWGQGTQVTVSS | high polyreactivity
